One molecule from US20030050434A1 can be followed below.

This assay concerns the target polyclonal rabbit antiserum raised against synthetic rat preptin conjugated to ovalbumin. Description: competitive radioimmunoassay, [125I]preptin tracer, antiserum 1:10,000, PEG-assisted second antibody separation.

In turn, DVSTSQAVLPDDFPRYPVGKFFKFDTWRQSAGRL [synthetic rat preptin] yielded a concentration for an effect of 20% (EC20) of 344 pM, an EC80 of 39 pM and a minimum detectable concentration of 11.2 pM.
